The text below walks through data of publication PMC7465787.

Experiment [1] addresses Cysteine-SpyCatcher. Nature of the experiment: pull-down; Cys-SpyCatcher on magnetic beads (50 µl, 20 mg/ml) mixed with 200 µl crude leaf filtrate of plants expressing Plastid-SpyTag; 30 min at 4 °C, chloroplast isolation buffer (10 mM HEPES-KOH pH 7.0, 0.33 M sorbitol), three washes; chloroplasts on beads read by CLSM and counted; wild type filtrate as control.
Experiment [2] has as its target Cysteine-SpyCatcher.
Experiment [3] concerns the target Cysteine-SpyCatcher. Nature of the experiment: pull-down; Cys-SpyCatcher on magnetic beads (50 µl, 20 mg/ml) mixed with 500 µl crude leaf filtrate of plants expressing Mito-SpyTag; 30 min at 4 °C, mitochondria isolation buffer (30 mM MOPS pH 7.5, 0.3 M mannitol, 1 mM EDTA), three washes; mitochondria stained with MitoTracker Orange, read by CLSM and counted; wild type filtrate as control.

In the experiment with Cysteine-SpyCatcher [1], Plastid-SpyTag (OEP7-SpyTag) had a percent of beads that carry a chloroplast of 22.8%.
In the experiment with Cysteine-SpyCatcher [2], “Mito-SpyTag (NtHxk1-SpyTag) (from UniProt Q9SEK2 1-44)” had an enrichment of mitochondrial fumarase activity in the bead fraction compared to the crude input fraction of 5.4 fold. Also, in the experiment with Cysteine-SpyCatcher [3], the percent of beads that carry a bound mitochondrion was found to be 31.1%.
